Results as given in patent US20030087394, “Insulin related transcription factor and uses thereof” (published 2003).

Target: RIPE3b1 47-kDa protein (mMafA), affinity purified and SDS-PAGE eluted (UniProt A0A1U7RCQ9 A0A1U7RCQ9:1-361)
Experiment: pulldown; streptavidin agarose affinity purification
Settings: tags: from HIT T-15 nuclear extract; label: 5' biotin top strand
Description: This HP fraction contained about 85% of the recovered RIPE3b 1 factor with a 2.5-fold purification. The RIPE3b binding factor was then affinity purified from the HP fraction using a 5′ biotinylated RIPE3b oligonucleotide and streptavidin agarose. The purified fractions were analyzed for binding to a rat insulin II-139 to -101 bp probe by EMSA [FIG. 3, (24)]. The −139 to −101 bp probe contains the RIPE3b and overlapping A2 elements. Five distinct factors (RIPE3b1, RIPE3b2 and three A2 specific complexes) can bind the −139 to −101 bp probe. Thus the −139 to −101 bp probe serves as a good indicator of the purification process. The RIPE3b1 binding activity was eluted in two fractions and was the predominant DNA binding activity in these fractions. RIPE3b1 binding activity was purified 95-fold as compared to the HP fraction […]. The purified fraction was next analyzed on a 10% SDS-PAGE gel along with the starting HIT T-15 nuclear extract and HP fraction. […] The regions corresponding to the individual protein bands were cut; the proteins were then eluted and analyzed for the RIPE3b1 binding activity. […]

Chain of RIPE3b1 47-kDa protein (mMafA), affinity purified and SDS-PAGE eluted (A0A1U7RCQ9 entry or part of it): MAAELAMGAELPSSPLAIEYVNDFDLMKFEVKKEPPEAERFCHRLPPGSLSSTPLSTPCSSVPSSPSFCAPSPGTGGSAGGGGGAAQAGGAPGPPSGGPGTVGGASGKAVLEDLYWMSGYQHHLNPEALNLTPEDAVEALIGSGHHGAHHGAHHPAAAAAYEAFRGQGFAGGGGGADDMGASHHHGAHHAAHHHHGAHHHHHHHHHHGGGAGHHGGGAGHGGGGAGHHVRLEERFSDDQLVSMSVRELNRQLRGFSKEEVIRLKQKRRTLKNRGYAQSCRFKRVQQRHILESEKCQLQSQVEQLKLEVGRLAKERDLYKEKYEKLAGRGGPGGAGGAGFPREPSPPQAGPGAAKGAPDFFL

B1: biotinylated RIPE3b (-126 to -101) dimer (dsDNA)
DNA 1: TGACTGGAAACTGCAGCTTCAGCCCCTCTGGAAACTGCAGCTTCAGCCCCAC
DNA 2: GTGGGGCTGAAGCTGCAGTTTCCAGAGGGGCTGAAGCTGCAGTTTCCAGTCA
  binding result: binds
